Drawing on article PMC7076203, this text covers suppression of Aβ40 and Aβ42 production in H4-APPwt cells by GAL3BP for one substance.

In this assay the target is WT APP (amyloid precursor protein) stably expressed in H4-APPwt cells (human) (UniProt P05067).
Sequence of WT APP (amyloid precursor protein) stably expressed in H4-APPwt cells (human) (P05067 18-770): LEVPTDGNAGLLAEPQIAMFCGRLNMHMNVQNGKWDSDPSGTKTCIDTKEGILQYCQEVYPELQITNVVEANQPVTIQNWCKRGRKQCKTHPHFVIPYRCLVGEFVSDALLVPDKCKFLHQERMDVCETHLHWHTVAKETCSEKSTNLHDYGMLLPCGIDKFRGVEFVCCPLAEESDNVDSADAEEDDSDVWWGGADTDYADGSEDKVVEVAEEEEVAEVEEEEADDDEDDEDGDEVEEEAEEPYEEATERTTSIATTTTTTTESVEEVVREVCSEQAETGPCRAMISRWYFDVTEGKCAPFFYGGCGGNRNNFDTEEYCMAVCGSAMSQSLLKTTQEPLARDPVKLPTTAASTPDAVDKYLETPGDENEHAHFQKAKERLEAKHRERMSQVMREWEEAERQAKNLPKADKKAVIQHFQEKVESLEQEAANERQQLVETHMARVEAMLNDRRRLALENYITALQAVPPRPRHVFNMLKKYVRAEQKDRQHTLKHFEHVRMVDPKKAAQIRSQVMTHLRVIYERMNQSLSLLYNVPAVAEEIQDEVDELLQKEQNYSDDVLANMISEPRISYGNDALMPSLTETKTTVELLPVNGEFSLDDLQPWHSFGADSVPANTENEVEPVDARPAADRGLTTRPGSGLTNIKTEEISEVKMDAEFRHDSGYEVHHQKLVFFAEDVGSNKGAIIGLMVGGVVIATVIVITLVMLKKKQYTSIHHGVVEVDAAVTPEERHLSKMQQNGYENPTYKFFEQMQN

Sequence of GAL3BP (preparation not stated) (Q08380 19-585): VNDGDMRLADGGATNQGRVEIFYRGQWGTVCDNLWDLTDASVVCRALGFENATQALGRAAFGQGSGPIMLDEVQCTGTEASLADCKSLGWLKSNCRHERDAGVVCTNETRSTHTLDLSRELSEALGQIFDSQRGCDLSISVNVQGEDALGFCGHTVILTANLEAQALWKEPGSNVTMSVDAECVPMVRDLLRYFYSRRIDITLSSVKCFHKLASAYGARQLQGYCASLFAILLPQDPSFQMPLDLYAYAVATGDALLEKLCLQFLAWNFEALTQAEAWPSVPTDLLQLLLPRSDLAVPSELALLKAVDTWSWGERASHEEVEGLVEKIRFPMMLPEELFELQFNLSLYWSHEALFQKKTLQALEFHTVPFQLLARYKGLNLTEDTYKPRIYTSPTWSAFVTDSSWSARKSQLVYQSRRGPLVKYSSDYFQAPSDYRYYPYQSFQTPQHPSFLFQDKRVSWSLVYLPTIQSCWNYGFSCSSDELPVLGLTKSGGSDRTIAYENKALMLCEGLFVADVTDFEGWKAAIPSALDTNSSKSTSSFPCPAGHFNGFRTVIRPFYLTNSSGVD

For the substance “GAL3BP (preparation not stated) (from UniProt Q08380 19-585) (natural protein)”, the suppression of Aβ40 and Aβ42 production in H4-APPwt cells by GAL3BP was 30%.
